# Test results: patent US12090209B2, “Twin base linkers for virus inactivation” (priority 2020, dated 2024)
# Where no end group is shown, it is not given here.
# Target: heat-inactivated SARS-CoV-2 spike (S) protein (Severe acute respiratory syndrome coronavirus 2, UniProt P0DTC2)
substance,measurement,value
"TBL-SADE: TBS monomer of Formula 1 wherein L=SADE (SEQ ID NO:2) peptide, no further targeting moieties (also: TBS monomer of Formula 1, L = SADE, functionalized)",binding to SARS-CoV-2 spike (S) protein,confirmed binding
